Results from PMC3273806.
One block for each substance: values may come before it.

What was measured:
[1] = target: human RAD18, wild type, His-tagged or FLAG-tagged (human) (UniProt Q9NS91); assay: quantitative SDS-PAGE
[2] = target: RAD18^ΔC1 (residues 1-341), His-tagged or FLAG-tagged (human) (UniProt Q9NS91); assay: quantitative SDS-PAGE
[3] = target: untagged RAD18 expressed in human cells (human) (UniProt Q9NS91); assay: quantitative western blotting against a reference complex
[4] = target: FLAG-tagged RAD18 expressed in human cells (human) (UniProt Q9NS91); assay: as above
Chain of FLAG-tagged RAD18 expressed in human cells (human) (Q9NS91 whole entry, the tested form may be a part): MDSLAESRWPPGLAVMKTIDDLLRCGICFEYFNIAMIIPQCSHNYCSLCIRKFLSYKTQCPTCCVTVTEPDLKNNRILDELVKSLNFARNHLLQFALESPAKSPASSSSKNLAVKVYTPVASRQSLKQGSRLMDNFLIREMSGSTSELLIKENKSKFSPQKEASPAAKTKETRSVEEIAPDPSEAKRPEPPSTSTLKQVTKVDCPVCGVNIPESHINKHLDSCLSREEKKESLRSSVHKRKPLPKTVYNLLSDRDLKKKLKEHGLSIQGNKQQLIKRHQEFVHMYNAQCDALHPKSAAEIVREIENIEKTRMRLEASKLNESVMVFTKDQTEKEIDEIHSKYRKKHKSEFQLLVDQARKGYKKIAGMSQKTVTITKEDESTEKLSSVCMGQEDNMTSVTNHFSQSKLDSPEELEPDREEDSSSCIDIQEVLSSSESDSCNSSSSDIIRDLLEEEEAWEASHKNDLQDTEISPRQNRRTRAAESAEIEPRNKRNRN

[5] = target: ^HisRAD18^ΔN1 (residues 113-495) (human) (UniProt Q9NS91); assay: quantitative SDS-PAGE
Chain of ^HisRAD18^ΔN1 (residues 113-495) (human) (Q9NS91 113-495, stated change not applied): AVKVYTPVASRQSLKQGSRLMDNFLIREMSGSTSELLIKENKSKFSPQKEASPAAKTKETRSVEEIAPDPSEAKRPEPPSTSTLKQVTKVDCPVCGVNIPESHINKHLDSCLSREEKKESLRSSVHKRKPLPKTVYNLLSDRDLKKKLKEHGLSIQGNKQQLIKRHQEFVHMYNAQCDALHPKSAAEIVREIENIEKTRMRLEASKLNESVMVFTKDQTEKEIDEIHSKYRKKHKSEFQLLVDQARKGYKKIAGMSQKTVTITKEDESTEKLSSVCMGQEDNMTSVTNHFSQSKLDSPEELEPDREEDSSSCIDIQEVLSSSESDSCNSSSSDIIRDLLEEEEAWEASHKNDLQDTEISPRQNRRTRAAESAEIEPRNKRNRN

Chain of human RAD18, wild type, His-tagged or FLAG-tagged (Q9NS91 whole entry): as the sequence (Q9NS91 whole entry, the tested form may be a part) above
Chain of RAD18^ΔC1 (residues 1-341), His-tagged or FLAG-tagged (human) (Q9NS91 1-341, stated change not applied): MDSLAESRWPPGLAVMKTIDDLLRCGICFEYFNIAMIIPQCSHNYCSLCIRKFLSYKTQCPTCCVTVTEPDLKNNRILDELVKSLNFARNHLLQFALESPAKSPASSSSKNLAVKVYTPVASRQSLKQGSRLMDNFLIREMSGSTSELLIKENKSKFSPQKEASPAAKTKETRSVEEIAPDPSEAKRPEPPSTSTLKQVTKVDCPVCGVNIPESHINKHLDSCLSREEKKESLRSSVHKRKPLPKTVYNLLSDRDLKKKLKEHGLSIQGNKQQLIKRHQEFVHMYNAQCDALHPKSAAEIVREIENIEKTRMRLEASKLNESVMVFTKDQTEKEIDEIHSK
Chain of FLAG-tagged human RAD6A (P49459 whole entry): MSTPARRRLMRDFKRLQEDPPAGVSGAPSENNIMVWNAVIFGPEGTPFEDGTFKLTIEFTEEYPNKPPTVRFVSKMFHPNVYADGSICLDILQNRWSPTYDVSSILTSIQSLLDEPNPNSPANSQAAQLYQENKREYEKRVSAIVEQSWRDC
Chain of untagged RAD6A expressed in human cells (P49459 whole entry): as above
Chain of human RAD6A (P49459 whole entry): as above
Chain of HA-tagged RAD6A expressed in human cells (P49459 whole entry): as above
Chain of FLAG-tagged RAD18 expressed in human cells (Q9NS91 whole entry): as the sequence (Q9NS91 whole entry, the tested form may be a part) above
Chain of untagged RAD18 expressed in human cells (human) (Q9NS91 whole entry): as the sequence (Q9NS91 whole entry, the tested form may be a part) above
Chain of untagged RAD18 expressed in human cells (Q9NS91 whole entry): as the sequence (Q9NS91 whole entry, the tested form may be a part) above
Chain of human RAD18, wild type, His-tagged or FLAG-tagged (human) (Q9NS91 whole entry, the tested form may be a part): as above

ratio of HisRAD18 to FLAGRAD18 in the complex (HisRAD18 per FLAGRAD18) [1]: 1
stoichiometry N (FLAGRAD18 per HisRAD18ΔC1) [2]: 1
Substance: human RAD18, wild type, His-tagged or FLAG-tagged (from UniProt Q9NS91 1-495) (enzyme)

stoichiometry N [3]: 2
Substance: untagged RAD18 expressed in human cells (from UniProt Q9NS91 1-495) (enzyme)

stoichiometry N [4]: 2
Substance: FLAG-tagged RAD18 expressed in human cells (from UniProt Q9NS91 1-495) (enzyme)

stoichiometry N (RAD6A per RAD18) [3]: 0.5
Substance: untagged RAD6A expressed in human cells (from UniProt P49459 1-152) (enzyme)

stoichiometry N (RAD6A per RAD18) [4]: 0.5
Substance: HA-tagged RAD6A expressed in human cells (from UniProt P49459 1-152) (enzyme)

stoichiometry N (RAD6A per RAD18) [1]: 0.5
Substance: FLAG-tagged human RAD6A (from UniProt P49459 1-152) (enzyme)

stoichiometry N (RAD6A per HisRAD18ΔN1) [5]: 1
Substance: human RAD6A (from UniProt P49459 1-152) (enzyme)
